Measured values: EP3466970A1 (Orum Therapeutics Inc., dated 2019)

Target: T1, mCherry (red fluorescence) H-RAS G12V expressed in NIH3T3 cells (UniProt P01112 1-186, limits assumed)
T1 construct: Intracellular target at the inner cell membrane; also called intracellular H-RAS G12V mutants
Test: confocal microscopy, colocalisation in NIH3T3 cells expressing mCherry H-RAS G12V

B1: cytosol-penetrating antibody (cytotransmab) TMab4 (antibody, V domains shown)
VH: EVQLVESGGGLVQPGGSLRLSCAASGYTFTSYVMHWVRQAPGKGLEWVSAINPYNDGNYYADSVKGRFTISRDNSRKTLYLQMNSLRAEDTAVYYCARGAYKRGYAMDYWGQGTTVTVSS
VL: DLVMTQSPSSLSASVGDRVTITCKSSQSLFNSRTRKNYLAWYQQKPGKAPKLLIYWASTRESGVPSRFSGSGSGTDFTLTISSLQPEDFATYYCQQYYYHMYTFGQGTKVEIKR
notes: Intact IgG-format monoclonal antibody; Used as negative control in the RAS assays; also called CT
binding result: no binding (tested: 2 µM)
